In series [1] the target is Amyloid beta 1-42 oligomers (UniProt P05067 672-713). Kind of series: electrochemical antibody-aptamer sandwich (DPV); 20 nM, antibody capture; 0.1 M phosphate buffer (Na2HPO4/NaH2PO4) pH 7.4; incubations at 37 C (Abeta 60 min, aptamer-Au-Th 3 h); 1% BSA block. To be noted: label: gold nanoparticle, thionine.
The target of series [2] is Amyloid beta 1-40 oligomers (UniProt P05067 672-711). Kind of series: electrochemical antibody-aptamer sandwich (DPV); 20 nM, antibody capture; response similar to 1-42 oligomers; 0.1 M phosphate buffer (Na2HPO4/NaH2PO4) pH 7.4; incubations at 37 C (Abeta 60 min, aptamer-Au-Th 3 h); 1% BSA block. As to conditions: label: gold nanoparticle, thionine.
Sequence of Amyloid beta 1-40 oligomers (P05067 672-711): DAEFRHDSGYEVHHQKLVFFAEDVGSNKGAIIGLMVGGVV

Sequence of Amyloid beta 1-42 oligomers (P05067 672-713): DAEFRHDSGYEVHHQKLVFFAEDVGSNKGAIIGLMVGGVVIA

Take GCCTGTGTTGGGGCGGGTGCG (ssDNA, 5'-HS (thiol)) [Abeta oligomer aptamer (thiolated, on AuNP with thionine)]: the binding result in series [1] and in series [2] was “binds” in each case.

Source of the values: publication PMC5057102, “Fabrication of an antibody-aptamer sandwich assay for electrochemical evaluation of levels of β-amyloid oligomers”.
